From article PMC3910272, “Assay Platform for Clinically Relevant Metallo-β-lactamases” (Journal of Medicinal Chemistry, 2013)
Marks after values point to notes of the source that are not given here.

Tests used:
[1] = target: VIM-2 (Escherichia coli, UniProt Q5U7L7); assay: biochemical
[2] = target: T1, SPM-1 (Pseudomonas aeruginosa, UniProt Q8G9Q0); assay: SPM-1 inhibition (residual activity, IC50), FC4 as reporter substrate; assay type: biochemical
Source text: To achieve clinical utility, MBL inhibitors may need to act on more than one MBL subfamily. This is potentially challenging because of the generally low sequence similarity between MBLs of different subfamilies (B1, B2, B3). […] This set of compounds was selected as a result of their previously reported inhibition of metal-binding oxygenases.[51] […] In contrast, the compounds derivatized with a Trp, Leu, Asp, or Glu residue inhibited SPM-1, with the tryptophan-functionalized chloroisoquinolinols (S)-7d and (R)-7d giving the most promising results (3% and 8% residual activity (RA) at 200 μM, respectively).
(§1) Taking into account the aforementioned requirements,
(§2) absorbance from Greiner Bio-One were used.
(§3) Determination of the steady state kinetic
(§4) concentration using the same software.
(§5) Additional tests verified

[3] = target: T2, Bc II (Bacillus cereus, UniProt P04190); assay: Bc II inhibition IC50, FC4 as reporter substrate; assay type: biochemical
T2 construct: made in house; host or cells: E. coli BL21(DE3) pLysS
Source text: as §1, §2, §3, §4, §5

[4] = target: IMP-1 (Serratia marcescens, UniProt P52699); assay: biochemical
[5] = target: T3, NDM-1 (Klebsiella pneumoniae, UniProt C7C422); assay: biochemical
[6] = Autohydrolysis and storage stability of fluorogenic substrates; assay type: physicochemical; conditions: for period of use when stored as solids: solids at −20 °C; for time solutions could be used: solutions stored on ice
[7] = target: T3, NDM-1; assay type: biochemical; design: His-tag (3C protease cleavable) (N, cleaved yes); made in house; host or cells: E. coli BL21(DE3) pLysS; conditions: substrate hydrolysis
Source text: as §1, §2, §3, §4

[8] = target: T1, SPM-1; assay: biochemical
Source text: as §1, §2, §3, §4

[9] = tested on: O=C(Cc1cccs1)N[C@@H]1C(=O)N2C(C(=O)O)=C(/C=C/c3ccc([N+](=O)[O-])cc3[N+](=O)[O-])CS[C@H]12; assay: purified protein, by the assay type; conditions: substrate hydrolysis
[10] = tested on: O=C(Cc1cccs1)N[C@@H]1C(=O)N2C(C(=O)O)=C(CSc3ccc([N+](=O)[O-])c(C(=O)O)c3)CS[C@H]12; assay: purified protein, by the assay type; conditions: substrate hydrolysis
[11] = tested on: C[C@@H](O)[C@H]1C(=O)N2C(C(=O)O)=C(SCCN=CN)C[C@H]12; assay: purified protein, by the assay type; conditions: substrate hydrolysis
[12] = tested on: [H][C@@]12[C@H](NC(=O)Cc3ccccc3)C(=O)N1C(C(=O)O)=C(COc1ccc3ccc(=O)oc3c1)CS2(=O)=O; assay: purified protein, by the assay type; conditions: substrate hydrolysis
[13] = tested on: O=C(Cc1ccccc1)N[C@@H]1C(=O)N2C(C(=O)O)=C(COc3ccc4ccc(=O)oc4c3)C[S+]([O-])[C@H]12; assay: purified protein, by the assay type; conditions: substrate hydrolysis
[14] = tested on: O=C(Cc1ccccc1)N[C@@H]1C(=O)N2C(C(=O)O)=C(COc3ccc4ccc(=O)oc4c3)CS[C@H]12; assay: purified protein, by the assay type; conditions: other: NDM-1; substrate hydrolysis

T3 sequence (C7C422 29-270 limits assumed): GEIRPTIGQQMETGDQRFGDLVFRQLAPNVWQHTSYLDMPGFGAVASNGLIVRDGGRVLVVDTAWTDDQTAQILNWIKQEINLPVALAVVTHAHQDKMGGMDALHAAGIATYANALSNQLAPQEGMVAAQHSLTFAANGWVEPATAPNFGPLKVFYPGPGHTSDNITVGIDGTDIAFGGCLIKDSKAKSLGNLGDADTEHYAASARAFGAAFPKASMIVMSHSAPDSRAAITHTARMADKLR
T1 sequence (Q8G9Q0 entry or part of it): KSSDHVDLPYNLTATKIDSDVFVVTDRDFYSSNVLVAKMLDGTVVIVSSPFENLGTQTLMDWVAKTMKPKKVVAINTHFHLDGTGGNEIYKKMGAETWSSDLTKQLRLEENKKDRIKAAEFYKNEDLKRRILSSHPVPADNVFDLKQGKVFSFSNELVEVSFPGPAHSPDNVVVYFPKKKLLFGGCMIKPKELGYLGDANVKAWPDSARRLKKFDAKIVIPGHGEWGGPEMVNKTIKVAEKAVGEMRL
Chain of IMP-1 (P52699 19-246 limits assumed): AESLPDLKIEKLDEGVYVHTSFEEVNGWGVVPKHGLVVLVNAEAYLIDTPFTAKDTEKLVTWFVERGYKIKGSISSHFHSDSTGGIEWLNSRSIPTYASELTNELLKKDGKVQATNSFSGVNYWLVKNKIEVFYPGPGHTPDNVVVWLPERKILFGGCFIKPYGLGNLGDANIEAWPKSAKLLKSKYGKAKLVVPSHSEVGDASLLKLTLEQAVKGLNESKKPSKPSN
T2 sequence (P04190 31-257): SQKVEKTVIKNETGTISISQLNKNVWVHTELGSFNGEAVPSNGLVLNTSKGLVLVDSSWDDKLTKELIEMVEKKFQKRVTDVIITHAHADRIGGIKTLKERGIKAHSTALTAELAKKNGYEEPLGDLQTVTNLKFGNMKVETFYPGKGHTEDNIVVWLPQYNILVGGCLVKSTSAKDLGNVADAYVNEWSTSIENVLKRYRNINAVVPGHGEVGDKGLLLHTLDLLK

O=C(N[C@H](Cc1c[nH]c2ccccc12)C(=O)O)c1nc(Cl)c2ccccc2c1O [(R)-7d]
IC50 [1]: 55.3 ± 1.3 µM | IC50 [2]: 46.6 ± 1.1 µM | IC50 [3]: 132.4 ± 1.3 µM | IC50 [4]: 74.1 ± 1.6 µM | IC50 [5]: 47.1 ± 1.1 µM

O=C(N[C@@H](Cc1c[nH]c2ccccc12)C(=O)O)c1nc(Cl)c2ccccc2c1O [(S)-7d]
IC50 [1]: 54.7 ± 1.4 µM | IC50 [2]: 23.2 ± 1.1 µM | IC50 [3]: 61.3 ± 1.3 µM | IC50 [4]: 75.6 ± 1.5 µM | IC50 [5]: 61.4 ± 1.3 µM

O=C(Cc1ccccc1)N[C@@H]1C(=O)N2C(C(=O)O)=C(COc3ccc4ccc(=O)oc4c3)CS[C@H]12 [FC3]
autohydrolysis in buffer ([6]; buffer, room temperature, after 3 h): substantial hydrolysis

O=C(Cc1ccccc1)N[C@@H]1C(=O)N2C(C(=O)O)=C(COc3ccc4ccc(=O)oc4c3)C[S+]([O-])[C@H]12 (stereo partly drawn) [FC4, (6R,7R)-8-Oxo-3-(((2-oxo-2H-chromen-7-yl)oxy)methyl)-7-(2-phenylacetamido)-5-thia-1-azabicyclo[4.2.0]oct-2-ene-2-carboxylic Acid 5-Oxide]
time stable in buffer (autohydrolysis study) ([6]; buffer, room temperature): at least 8 h | period of use when stored as solids [6]: months | time solutions could be used [6]: 1 to 2 days

O=C(Cc1ccccc1)N[C@@H]1C(=O)N2C(C(=O)O)=C(COc3ccc4ccc(=O)oc4c3)CS(=O)(=O)[C@H]12 [FC5, (6R,7R)-8-Oxo-3-(((2-oxo-2H-chromen-7-yl)oxy)methyl)-7-(2-phenylacetamido)-5-thia-1-azabicyclo[4.2.0]oct-2-ene-2-carboxylic Acid 5,5-Dioxide]
time stable in buffer (autohydrolysis study) ([6]; buffer, room temperature): at least 8 h | period of use when stored as solids [6]: months | time solutions could be used [6]: 1 to 2 days

O=C(Cc1cccs1)N[C@@H]1C(=O)N2C(C(=O)O)=C(/C=C/c3ccc([N+](=O)[O-])cc3[N+](=O)[O-])CS[C@H]12 [nitrocefin]
Km [7]: 8.8 ± 1.1 µM | kcat [7]: 25.3 s^–1 | Ki ([8]; apparent Ki value for substrate/product inhibition, table footnote): 36.6 µM | Ki ([8]; concentration at which SPM-1 is inhibited by nitrocefin/nitrocefin-derived species, substrate or product inhibition): 36 µM

O=C(O)c1ccc(O)cc1O [β-Resorcylic acid, reference compound]
RA 1 mM (residual activity on SPM-1) ([2]; compound at 1 mM, FC4 reporter substrate, 10 min preincubation): 76%

BcII (Bacillus cereus)
Km ([9]; other: BcII): 8.1 ± 1.0 µM | kcat ([9]; other: BcII): 14.9 s⁻¹ | kcat/Km ([9]; other: BcII): 1.8e+06 M⁻¹ s⁻¹ | kcat ([10]; other: BcII): 8.9 s⁻¹ | kcat/Km ([10]; other: BcII): 60000 M⁻¹ s⁻¹ | kcat/Km ([11]; other: BcII): 400000 M⁻¹ s⁻¹ | kcat/Km ([12]; other: BcII): 3.7e+06 M⁻¹ s⁻¹ | kcat/Km ([13]; other: BcII): 700000 M⁻¹ s⁻¹

IMP-1 (Serratia marcescens)
Km ([9]; other: IMP-1): 55.7 ± 4.8 µM | kcat ([9]; other: IMP-1): 2790 s⁻¹ | kcat/Km ([9]; other: IMP-1): 5.02e+07 M⁻¹ s⁻¹ | kcat/Km ([10]; other: IMP-1): 2.53e+07 M⁻¹ s⁻¹ | kcat ([11]; other: IMP-1): 1200 s⁻¹ | kcat/Km ([11]; other: IMP-1): 2.81e+07 M⁻¹ s⁻¹ | kcat/Km ([12]; other: IMP-1): 5.17e+08 M⁻¹ s⁻¹ | kcat/Km ([13]; other: IMP-1): 8.07e+08 M⁻¹ s⁻¹

NDM-1 (Klebsiella pneumoniae)
kcat/Km [14]: 5.8e+06 M⁻¹ s⁻¹ | kcat/Km ([11]; other: NDM-1): 3.6e+06 M⁻¹ s⁻¹ | Km ([12]; other: NDM-1): 2.4 ± 0.2 µM | kcat/Km ([12]; other: NDM-1): 1.24e+08 M⁻¹ s⁻¹ | Km ([13]; other: NDM-1): 4.0 ± 0.8 µM | kcat/Km ([13]; other: NDM-1): 3.2e+07 M⁻¹ s⁻¹

SPM-1 (Pseudomonas aeruginosa)
Km ([9]; other: SPM-1): 16.0 ± 3.7 ^c μM | kcat ([9]; other: SPM-1): 0.7 s⁻¹ | kcat/Km ([9]; other: SPM-1): 40000 M⁻¹ s⁻¹ | kcat ([10]; other: SPM-1): 6.1 s⁻¹ | kcat/Km ([10]; other: SPM-1): 200000 M⁻¹ s⁻¹ | kcat/Km ([11]; other: SPM-1): 100000 M⁻¹ s⁻¹ | Km ([12]; other: SPM-1): 2.7 ± 0.2 µM | kcat/Km ([12]; other: SPM-1): 1.03e+07 M⁻¹ s⁻¹ | Km ([13]; other: SPM-1): 2.5 ± 0.2 µM | kcat ([13]; other: SPM-1): 8.7 s⁻¹ | kcat/Km ([13]; other: SPM-1): 3.5e+06 M⁻¹ s⁻¹

VIM-2 (Escherichia coli)
Km ([9]; other: VIM-2): 7.2 ± 0.6 µM | kcat ([9]; other: VIM-2): 226 s⁻¹ | kcat/Km ([9]; other: VIM-2): 3.12e+07 M⁻¹ s⁻¹ | kcat/Km ([10]; other: VIM-2): 1.8e+06 M⁻¹ s⁻¹ | kcat/Km ([11]; other: VIM-2): 1.1e+06 M⁻¹ s⁻¹ | kcat/Km ([12]; other: VIM-2): 1.91e+07 M⁻¹ s⁻¹ | Km ([13]; other: VIM-2): 6.3 ± 0.4 µM | kcat/Km ([13]; other: VIM-2): 2e+07 M⁻¹ s⁻¹
